In general, IC50 refers to the point on the concentration scale where inhibition reaches its midpoint. Low values mean inhibition by little substance, high ones a need for much substance.

What all share (experiment): cell-based or functional assay
For test [1], the target named is HIV-1 Env of pseudovirus MGRM-AG-012 (clade CRF_AG) (HIV-1).
Test [2] deals with HIV-1 Env of isolate MGRM-D-008 (clade D pseudovirus) (HIV-1).
For test [3], the target named is HIV-1 envelope glycoprotein (Env) of isolate MGRM-A-007, clade A (HIV-1).
Test [4] deals with HIV-1 Env of isolate MGRM-D-019 (clade D pseudovirus) (HIV-1).
Test [5] deals with HIV-1 envelope glycoprotein (Env) of isolate MGRM-A-012, clade A (HIV-1).
Test [6] has as its target HIV-1 Env of pseudovirus MGRM-F1-010 (HIV-1).
Test [7] addresses HIV-1 NL43 envelope glycoprotein (Env) on pseudovirus (HIV-1).
The target of test [8] is HIV-1 94UG103 envelope glycoprotein (Env) on pseudovirus (HIV-1).
Test [9] concerns the target HIV-1 Env of pseudovirus MGRM-G-024 (HIV-1, clade G isolate MGRM-G-024).
In test [10] the target is HIV-1 Env of pseudovirus MGRM-F1-008 (HIV-1).
Test [11] deals with HIV-1 Env of isolate VLGCB3, clade B, on pseudovirus (HIV-1).
In test [12] the target is HIV-1 Env of pseudovirus MGRM-Chronic-B-012 (HIV-1).
The target in test [13] is HIV-1 Env of pseudovirus MGRM-G-011 (HIV-1, clade G isolate MGRM-G-011).
Test [14] addresses HIV-1 envelope glycoprotein (Env) of isolate 94KE105, listed under clade A (HIV-1).
Test [15] has as its target HIV-1 envelope glycoprotein (Env) of isolate MGRM-A-014, clade A (HIV-1).
The target in test [16] is HIV-1 Env of isolate SC422661.8 (Acute), clade B, on pseudovirus (HIV-1).
Test [17] addresses HIV-1 Env of isolate MGRM-D-016 (clade D pseudovirus) (HIV-1).
In test [18] the target is HIV-1 Env of isolate 98CN009 (CRF07 BC) (HIV-1 isolate 98CN009).

1443_C16 (PG16) (TCN-116) (antibody), sequence (VH): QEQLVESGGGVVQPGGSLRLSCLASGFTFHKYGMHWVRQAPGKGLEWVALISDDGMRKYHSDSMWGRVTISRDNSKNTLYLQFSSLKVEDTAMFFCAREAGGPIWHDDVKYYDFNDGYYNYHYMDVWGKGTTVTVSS
1443_C16 (PG16) (TCN-116) (antibody), sequence (VL): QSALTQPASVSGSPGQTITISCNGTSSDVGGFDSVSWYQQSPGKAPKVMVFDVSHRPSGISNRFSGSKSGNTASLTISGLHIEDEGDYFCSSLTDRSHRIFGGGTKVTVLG

With 1443_C16 (PG16) (TCN-116) (antibody), the IC50 in [1] was 25.1 µg/mL. Also, the IC50 (µg/ml), pseudovirus neutralization was over 50 µg/mL in [2]; 5.91 µg/mL in test [3]; 0.01 µg/mL in test [4]; 20.7 µg/mL in [5]; 0.01 µg/mL in test [6]; 0.01 µg/mL in test [9]. For the same substance, the IC50 (µg/ml), pseudovirus neutralization in [10] was over 50 µg/mL; in test [11], 0.4 µg/mL; in test [12], 3.74 µg/mL; in test [13], 0.04 µg/mL; in test [14] it was 6.13 µg/mL; in test [15], 20.3 µg/mL. Besides, the IC50 (µg/ml), pseudovirus neutralization in [16] was determined as 1.13 µg/mL; in test [17] it was 0.02 µg/mL; in test [18], 5.76 µg/mL. Besides, the IC50, pseudovirus neutralization in [7] is under 0.0025 µg/mL; in test [8], 0.008 µg/mL.
In [1], 1495_C14 (PGC14) (antibody) registered an IC50 of over 50 µg/mL. The IC50 (µg/ml), pseudovirus neutralization in test [2], in test [3], in test [4], in test [5], in [6] and in test [9] was over 50 µg/mL each time. Further, the IC50 (µg/ml), pseudovirus neutralization is over 50 µg/mL in test [10]; 21 µg/mL in test [11]; over 50 µg/mL in [12]; over 50 µg/mL in test [13]; over 50 µg/mL in [14]; over 50 µg/mL in test [15]. The IC50 (µg/ml), pseudovirus neutralization in test [16] was over 50 µg/mL; in test [17], over 50 µg/mL; in test [18] it was 43 µg/mL. The IC50, pseudovirus neutralization was 0.373 µg/mL in test [7] and over 50 µg/mL in [8].
For the substance b12 (antibody), the IC50 in test [1] came out at 10.4 µg/mL. The IC50 (µg/ml), pseudovirus neutralization in test [2] was over 50 µg/mL; in [3] it was over 50 µg/mL; in [4] it was over 50 µg/mL; in test [5] it was over 50 µg/mL; in test [6], over 50 µg/mL; in test [9], 2.38 µg/mL. Also, the IC50 (µg/ml), pseudovirus neutralization was over 50 µg/mL in [10]; 0.15 µg/mL in test [11]; over 50 µg/mL in test [12]; over 50 µg/mL in [13]; over 50 µg/mL in test [14]; over 50 µg/mL in test [15]. Moreover, the IC50 (µg/ml), pseudovirus neutralization in [16] came out at 6.11 µg/mL; in test [17], 1.12 µg/mL; in test [18], 1.52 µg/mL. The IC50, pseudovirus neutralization in test [7] worked out at 0.06 µg/mL; in [8], 3.54 µg/mL.

The values are drawn from patent US20250320281A1.
